Data: article PMC11077055, “Structure-functional characterization of Lactococcus AbiA phage defense system” (Nucleic Acids Research, 2024)
Positions count from the first letter of the chain named. Numbers in names are those of the source.

What was measured:
AbiA = biological target: T1, AbiA (Lactococcus lactis, UniProt Q48596); assay: extension of […]-labelled co-purified covalently attached DNA, urea-PAGE autoradiography; type: biochemical; settings: 200 uM single dNTP, 50 mM Tris pH 7.0, 250 mM NaCl, 10 mM MgCl2, 5 mM DTT, 37 C; DNA pre-labelled with alpha-33P-dATP; template-independent, protein-primed
T1 construct: full-length, 628 residues, N-terminal His6-tag kept (no SUMO), made in E. coli BL21 Star; plasmid-encoded in the source; homodimer (148 kDa theoretical); co-purifies with covalently attached ssDNA
T1 sequence (Q48596 1-628): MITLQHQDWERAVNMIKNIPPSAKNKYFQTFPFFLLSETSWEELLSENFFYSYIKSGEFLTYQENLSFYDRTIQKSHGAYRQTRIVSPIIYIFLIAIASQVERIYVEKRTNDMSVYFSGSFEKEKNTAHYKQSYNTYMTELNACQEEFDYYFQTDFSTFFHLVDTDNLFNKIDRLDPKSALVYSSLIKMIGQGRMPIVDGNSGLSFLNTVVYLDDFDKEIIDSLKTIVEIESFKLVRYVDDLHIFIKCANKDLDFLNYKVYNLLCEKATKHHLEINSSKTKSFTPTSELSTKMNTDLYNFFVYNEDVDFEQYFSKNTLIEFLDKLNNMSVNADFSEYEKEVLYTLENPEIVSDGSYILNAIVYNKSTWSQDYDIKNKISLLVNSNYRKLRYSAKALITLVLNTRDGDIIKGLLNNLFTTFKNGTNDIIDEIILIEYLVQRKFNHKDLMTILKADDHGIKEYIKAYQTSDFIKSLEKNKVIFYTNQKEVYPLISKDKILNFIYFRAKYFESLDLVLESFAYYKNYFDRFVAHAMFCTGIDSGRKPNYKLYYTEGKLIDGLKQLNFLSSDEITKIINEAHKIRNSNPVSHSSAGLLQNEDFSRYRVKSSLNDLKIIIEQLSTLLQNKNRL

[1] = biological target: the molecule itself; assay: SEC-MALS; Superdex 200 Increase 10/300 GL; 25 mM Tris pH 7.0, 400 mM NaCl, 2% glycerol, 1 mM DTT; 0.75 ml/min; self-association of AbiA variants
[2] = biological target: the molecule itself; assay: SEC-MALS; GF/MALS of tryptophan substitution variants of the dimer interface; data not shown

Nc1ccn([C@H]2C[C@H](O)[C@@H](COP(=O)(O)OP(=O)(O)OP(=O)(O)O)O2)c(=O)n1 [dCTP]
extension of 33P-labelled co-purified covalently attached DNA, urea-PAGE autorad (AbiA): dATP and dCTP were incorporated with efficiencies similar to those observed with dNTP mix

Nc1ncnc2c1ncn2[C@H]1C[C@H](O)[C@@H](COP(=O)(O)OP(=O)(O)OP(=O)(O)O)O1 [dATP]
extension of 33P-labelled co-purified covalently attached DNA, urea-PAGE autorad (AbiA): dATP and dCTP were incorporated with efficiencies similar to those observed with dNTP mix

B1: His6-SUMO-AbiA fusion protein (full-length AbiA from L. lactis with uncleaved SUMO tag) (enzyme, UniProt Q48596 1-628, looked up)
chain: T1 sequence (Q48596 1-628)
modifications: co-purified ssDNA; the paper shows covalent attachment, with priming at Tyr298 or Tyr303, on the His-tagged protein; 5-9 nt visible in the structure
notes: AbiA, plasmid-encoded abortive infection RT-like polymerase of Lactococcus lactis, full length, 628 amino acid residues; synthetic gene in pET28a-SUMO; The SUMO tag is not visible in the structure; also called full-length SUMO-tagged AbiA; AbiA with an uncleaved SUMO tag; source: E. coli BL21 STAR, purified (HisTrap HP, Superdex 200); not shown: His6, N-terminal, kept; SUMO, N-terminal, kept
stoichiometry N [1]: 2

B2: AbiA Y80W/T269W (enzyme, L. lactis, UniProt Q48596 1-628, looked up)
chain: T1 sequence (Q48596 1-628) with Y80W, T269W
notes: AbiA of Lactococcus lactis, 628 residues, with tryptophan substitutions in the dimer interface; The methods say point substitutions were introduced into the N-terminal His6-tag construct; Expression and purification of this variant are not described separately
stoichiometry N [2]: 2

B3: AbiA L515W (enzyme, L. lactis, UniProt Q48596 1-628, looked up)
chain: T1 sequence (Q48596 1-628) with L515W
notes: AbiA of Lactococcus lactis, 628 residues, with a tryptophan substitution in the dimer interface; The methods say point substitutions were introduced into the N-terminal His6-tag construct; Expression and purification of this variant are not described separately
stoichiometry N [2]: 2

B4: full-length untagged AbiA (enzyme, L. lactis, UniProt Q48596 1-628, looked up)
chain: T1 sequence (Q48596 1-628)
modifications: co-purified ssDNA covalently attached (priming at Tyr298 or Tyr303)
notes: AbiA, plasmid-encoded abortive infection RT-like polymerase of Lactococcus lactis, full length, 628 amino acid residues; The results call it 'untagged'; The only SUMO-free construct in the methods carries an N-terminal His6-tag, and the SUMO tag could not be cleaved, so this is probably His6-AbiA; also called AbiA without SUMO tag; AbiA without a tag; source: E. coli BL21 STAR, purified (HisTrap …)
stoichiometry N [1]: 2

B5: AbiA Y80W/T269W/L515W (enzyme, L. lactis, UniProt Q48596 1-628, looked up)
chain: T1 sequence (Q48596 1-628) with Y80W, T269W, L515W
notes: as for B2
stoichiometry N [2]: 2

B6: AbiA L162W/R601A (enzyme, L. lactis, UniProt Q48596 1-628, looked up)
chain: T1 sequence (Q48596 1-628) with L162W, R601A
notes: AbiA of Lactococcus lactis, 628 residues, with substitutions in the dimer interface; The methods say point substitutions were introduced into the N-terminal His6-tag construct; Expression and purification of this variant are not described separately
stoichiometry N [2]: 2
